From patent publication US20120076762A1, “INDUCED PLURIPOTENT STEM CELL GENERATION USING TWO FACTORS AND P53 INACTIVATION” (THE SALK INSTITUTE FOR BIOLOGICAL STUDIES, priority 2009, published 2012)

Experiments:
MEFs = assay: TUNEL staining of apoptotic cells in factor-infected MEFs; assay type: cell-based, mouse; details: 2-F, 3-F and 4-F experiments, five days after infection
Description: FIG. 13: Bcl-2 increased the efficiency of reprogramming. (FIG. 13a) MEFs were infected by retroviruses encoding 4 transcription factors (Oct4/Sox2/Klf4/c-Myc), 3 factors (Oct4/Sox2/Klf4), or 2 factors (Oct4/Sox2) with lentivirus encoding Bcl-2. Five days after infection, TUNEL-staining was performed. The percentage of apoptotic cells was analyzed (using at least five independent panels) and represented graphically. Error bars indicate s.d. (FIG. 13b) MEFs were infected by retroviruses encoding 3 factors (Oct4/Sox2/Klf4) in combination with mock or Bcl-2 expressing lentivirus. The fold change in the number of Nanog-positive colonies compared to mock (n=3) is shown. Error bars indicate s.d (n=3).

[1] = system: Mouse embryonic fibroblasts (MEFs); assay: Reprogramming of mouse embryonic fibroblasts to iPS cells (Nanog-positive colonies); assay type: cell-based; details: MEFs; for Reprogramming efficiency (Nanog-positive colonies / infected cells): 3F (Oct4/Sox2/Klf4), d12-14, error = s.d.; for Direction and grade of change in reprogramming efficiency (arrows): 3F, vs control
Source text: VSV-G viruses were produced in HEK293T cells. For pMX-based and pMSCV-based retroviruses, vectors were transfected using CaPO4 or lipofectamin, following the manufacturers' directions. One day after transfection, culture medium was changed to new medium. For lentivirus, pBOBI-based^34 or pLVTHM-based^37 vectors were transfected by Lipofectamine™ 2000 (Invitrogen) according to the manufacturer's protocol. Six hours after transfection, the DNA-lipofectamine-complex was removed and the medium was replaced the next day. Two days after transfection, the supernatant containing viruses was collected and filtered through a 0.45 μm filter. Mouse iPS cells were induced as previously described^38,39. Briefly, mouse embryonic fibroblasts (passage 3 to 5) were infected (day 0) with pMX-based retroviruses together with pLVTHM-based lentivirus for shRNAs or pBOBI-based lentivirus for Bcl-2. On day 2, cells were passed onto new gelatin-coated plates. Medium was changed every 2 days. On day 12 to 14, cells were fixed for immunofluorescence study. For the Nutlin3a experiments, cells were treated starting from day 4. Reprogramming of human embryonic fibroblasts (IMR90) was done as previously described^2′^3. Briefly, IMR90 fibroblasts (passage 7 to 9) were infected (day 0) with pMSCV-based retroviruses+pLVTHM-based lentiviruses for p53 shRNA. On day 4 or 5, cells were passed onto feeder MEFs. Medium was changed every day. Around 3 weeks after infection, cells were fixed for immunofluorescence studies. Reprogramming of human primary keratinocytes was carried out essentially as described^6. Cells were co-infected with retroviral supernatants containing 3 or 4 reprogramming factors and p53-DD or GFP at a 1:2 ratio. To assess the reprogramming efficiency, cells were trypsinized 3 days after retroviral infection and 10^4 cells were plated onto 6-cm tissue culture dishes on top of irradiated human foreskin fibroblasts with hES cell medium.
The number of Nanog-positive colonies was calculated after immunostaining at d12-14. The total number of Nanog-positive colonies was divided by the number of infected cells. Error numbers indicate s.d. The term “s.d.” refers in the customary sense to standard deviation. The term “s.e.” refers in the customary sense to standard error. Student's t-tests were performed for statistical analysis. p=0.007 (p53-shRNA vs mock, n=4 in each), p=0.0006 (p53−/− vs WT, n=3 in each), p=0.009 (p21-shRNA vs mock, n=4 in each), p=0.0005 (Arf-shRNA vs mock, n=3 in each), p=0.028 (Arf/Ink4a-shRNA vs mock, n=3 in each), p=0.010 (Ctl(solvent) vs Nutlin-3(10 μM), n=3 in each), p=0.045 (3SA/3SA vs WT, n=3 in each), p=0.022 (Bcl-2 vs mock, n=4 in each), and p=0.012 (c-Myc versus mock, n=4 in each).

B1: Bcl-2: mouse Bcl-2 cDNA overexpressed from HIV pBOBI lentiviral vector; BAX antagonist (protein, UniProt P10417 1-236, looked up)
Apoptosis regulator Bcl-2: MAQAGRTGYDNREIVMKYIHYKLSQRGYEWDAGDADAAPLGAAPTPGIFSFQPESNPMPAVHRDMAARTSPLRPLVATAGPALSPVPPVVHLTLRRAGDDFSRRYRRDFAEMSSQLHLTPFTARGRFATVVEELFRDGVNWGRIVAFFEFGGVMCVESVNREMSPLVDNIALWMTEYLNRHLHTWIQDNGGWDAFVELYGPSMRPLFDFSWLSLKTLLSLALVGACITLGAYLGHK
- Effect on apoptosis (TUNEL) (MEFs): suppressed apoptosis
- Fold increase in reprogramming / Nanog-positive colony formation vs control ([1]; 3-F): 4 fold
- Reprogramming efficiency (Nanog-positive colonies / infected cells) [1]: 0.268 ± 0.117% vs 0.100 + 0.062%
- Direction and grade of change in reprogramming efficiency (arrows) [1]: ↑↑

B2: c-Myc: c-Myc retrovirus (pMXs) added to Oct4/Sox2/Klf4 as fourth factor (protein, UniProt P01108 1-454, looked up)
Myc proto-oncogene protein: MDFLWALETPQTATTMPLNVNFTNRNYDLDYDSVQPYFICDEEENFYHQQQQSELQPPAPSEDIWKKFELLPTPPLSPSRRSGLCSPSYVAVATSFSPREDDDGGGGNFSTADQLEMMTELLGGDMVNQSFICDPDDETFIKNIIIQDCMWSGFSAAAKLVSEKLASYQAARKDSTSLSPARGHSVCSTSSLYLQDLTAAASECIDPSVVFPYPLNDSSSPKSCTSSDSTAFSPSSDSLLSSESSPRASPEPLVLHEETPPTTSSDSEEEQEDEEEIDVVSVEKRQTPAKRSESGSSPSRGHSKPPHSPLVLKRCHVSTHQHNYAAPPSTRKDYPAAKRAKLDSGRVLKQISNNRKCSSPRSSDTEENDKRRTHNVLERQRRNELKRSFFALRDQIPELENNEKAPKVVILKKATAYILSIQADEHKLTSEKDLLRKRREQLKHKLEQLRNSGA
- Reprogramming efficiency (Nanog-positive colonies / infected cells) [1]: 0.517 ± 0.264% vs 0.114 + 0.054%
- Direction and grade of change in reprogramming efficiency (arrows) [1]: ↑↑
